US11976099B2, “Compositions and methods for treatment of bone associated diseases” (THE NATIONAL INSTITUTE FOR BIOTECHNOLOGY IN THE NEGEV LTD., priority 2016, dated 2024)

B1: M-CSFM: 158 amino acid M-CSF with cysteine at position 31 replaced by serine (SEQ ID NO: 2) (protein)
chain: EEVSEYCSHMIGSGHLQSLQRLIDSQMETSSQITFEFVDQEQLKDPVCYLKKAFLLVQDIMEDTMRFRDNTPNAIAIVQLQELSLRLKSCFTKDYEEHDKACVRTFYETPLQLLEKVKNVFNETKNLLDKDWNIFSKNCNNSFAECSSQGHERQSEGS
B2: 5.6: bispecific M-CSFRGD variant from sort five; M-CSFM loop replaced by XXXRGDXXX motif; binds c-FMS and αvβ3 integrin (protein)
chain: EEVSEYCSHMIGSGHLQSLQRLIDTYPRGDMCSITFEFVDQEQLKDPVCYLKKAFLLVQDIMEDTMRFRDNTPNAIAIVQLQELSLRLKSCFTKDYEEHDKACVRTFYETPLQLLEKVKNVFNETKNLLDKDWNIFSKNCNNSFAECSSQGHERQSEGS
modifications: left off: small tags and cut ends

Experiments:
[1] = biological target: c-kit receptor (Homo sapiens, UniProt P10721); test: YSD binding specificity test against c-kit receptor; conditions: even at high concentrations of 200 nM; data not shown
Sequence of c-kit receptor (P10721 26-976): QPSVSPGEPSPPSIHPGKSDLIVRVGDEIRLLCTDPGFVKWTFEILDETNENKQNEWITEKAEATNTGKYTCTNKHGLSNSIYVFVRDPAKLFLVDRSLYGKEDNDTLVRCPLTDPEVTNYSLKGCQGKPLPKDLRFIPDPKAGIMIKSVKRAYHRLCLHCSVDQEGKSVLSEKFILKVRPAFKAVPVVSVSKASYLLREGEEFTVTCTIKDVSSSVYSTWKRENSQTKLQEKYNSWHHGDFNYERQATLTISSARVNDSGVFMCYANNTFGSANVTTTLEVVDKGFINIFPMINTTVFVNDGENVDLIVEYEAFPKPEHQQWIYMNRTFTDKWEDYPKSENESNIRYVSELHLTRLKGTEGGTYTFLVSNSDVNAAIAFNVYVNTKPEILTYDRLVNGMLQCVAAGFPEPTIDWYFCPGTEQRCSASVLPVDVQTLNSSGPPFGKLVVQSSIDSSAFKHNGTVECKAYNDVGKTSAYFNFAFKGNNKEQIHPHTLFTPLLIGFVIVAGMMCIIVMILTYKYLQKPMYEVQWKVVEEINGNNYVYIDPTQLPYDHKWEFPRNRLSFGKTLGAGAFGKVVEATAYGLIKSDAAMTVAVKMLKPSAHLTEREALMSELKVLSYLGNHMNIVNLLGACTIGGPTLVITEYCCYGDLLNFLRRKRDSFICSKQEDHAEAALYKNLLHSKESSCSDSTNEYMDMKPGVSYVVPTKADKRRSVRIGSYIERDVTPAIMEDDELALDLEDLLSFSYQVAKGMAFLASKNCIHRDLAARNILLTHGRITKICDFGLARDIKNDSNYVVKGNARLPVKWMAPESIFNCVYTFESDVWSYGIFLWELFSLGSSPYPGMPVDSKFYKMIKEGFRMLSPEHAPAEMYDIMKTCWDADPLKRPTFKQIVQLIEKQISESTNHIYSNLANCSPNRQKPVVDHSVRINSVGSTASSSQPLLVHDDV
Procedure: Next, a binding specificity of the M-CSFM to c-FMS was evaluated. For this purpose, the ability of M-CSFM to bind a c-kit receptor, which is a c-FMS structural homolog, was utilized.

[2] = biological target: T1, αvβ3 integrin (Homo sapiens, UniProt P05106+P06756, DEL719-788); test: YSD binding of M-CSFM to αvβ3 integrin; conditions: even at high concentrations of 200 nM
T1 construct: purchased R&D Systems
T1 sequence (P06756 31-992 limits assumed, stated change not applied): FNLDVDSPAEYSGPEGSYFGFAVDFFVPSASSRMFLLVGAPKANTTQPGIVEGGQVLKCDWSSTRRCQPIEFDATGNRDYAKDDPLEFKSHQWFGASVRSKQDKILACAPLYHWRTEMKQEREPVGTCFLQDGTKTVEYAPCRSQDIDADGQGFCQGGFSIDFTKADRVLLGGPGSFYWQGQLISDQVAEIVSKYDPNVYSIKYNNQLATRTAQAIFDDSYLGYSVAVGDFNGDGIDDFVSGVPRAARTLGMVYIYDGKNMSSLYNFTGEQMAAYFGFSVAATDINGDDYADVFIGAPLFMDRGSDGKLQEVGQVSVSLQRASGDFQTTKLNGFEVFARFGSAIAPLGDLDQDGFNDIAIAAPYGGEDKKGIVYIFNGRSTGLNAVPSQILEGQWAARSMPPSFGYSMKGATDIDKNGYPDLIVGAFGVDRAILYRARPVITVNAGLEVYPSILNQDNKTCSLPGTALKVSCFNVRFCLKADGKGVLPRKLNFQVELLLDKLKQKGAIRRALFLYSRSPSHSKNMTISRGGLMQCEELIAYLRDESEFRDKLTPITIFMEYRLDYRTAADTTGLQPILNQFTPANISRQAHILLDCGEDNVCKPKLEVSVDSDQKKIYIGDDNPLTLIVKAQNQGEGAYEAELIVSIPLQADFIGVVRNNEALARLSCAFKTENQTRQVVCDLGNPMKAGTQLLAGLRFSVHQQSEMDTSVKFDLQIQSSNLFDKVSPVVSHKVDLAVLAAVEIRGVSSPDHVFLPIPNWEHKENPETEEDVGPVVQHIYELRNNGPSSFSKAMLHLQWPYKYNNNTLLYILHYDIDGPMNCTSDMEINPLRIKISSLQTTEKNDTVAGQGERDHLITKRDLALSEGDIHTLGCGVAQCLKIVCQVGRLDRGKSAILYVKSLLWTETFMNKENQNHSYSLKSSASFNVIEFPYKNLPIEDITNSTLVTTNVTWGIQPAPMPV
T1 sequence (P05106 27-718 limits assumed, stated change not applied): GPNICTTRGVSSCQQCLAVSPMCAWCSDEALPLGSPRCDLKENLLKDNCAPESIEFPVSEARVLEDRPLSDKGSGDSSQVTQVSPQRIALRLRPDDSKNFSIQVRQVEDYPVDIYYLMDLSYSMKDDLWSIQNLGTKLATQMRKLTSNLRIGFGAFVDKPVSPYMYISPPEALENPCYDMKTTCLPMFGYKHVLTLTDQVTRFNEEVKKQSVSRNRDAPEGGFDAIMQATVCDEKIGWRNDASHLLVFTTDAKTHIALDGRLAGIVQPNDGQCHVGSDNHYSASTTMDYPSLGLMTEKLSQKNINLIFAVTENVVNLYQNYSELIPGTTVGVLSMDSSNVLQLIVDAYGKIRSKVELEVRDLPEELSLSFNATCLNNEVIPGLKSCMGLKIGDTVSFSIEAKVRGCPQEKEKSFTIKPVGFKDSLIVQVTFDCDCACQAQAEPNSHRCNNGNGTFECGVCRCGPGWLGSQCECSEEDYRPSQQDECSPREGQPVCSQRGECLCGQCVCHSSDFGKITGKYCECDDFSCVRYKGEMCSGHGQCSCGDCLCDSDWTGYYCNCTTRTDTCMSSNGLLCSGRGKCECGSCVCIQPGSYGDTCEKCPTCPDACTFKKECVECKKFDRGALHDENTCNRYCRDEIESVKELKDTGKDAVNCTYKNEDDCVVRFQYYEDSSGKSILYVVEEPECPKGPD
Procedure: For expressing the M-CSFM gene and the two M-CSFRGD libraries on the yeast surface, the SDCAA medium was replaced by SGCAA medium (2% galactose, 0.67% yeast nitrogen base, 0.5% bacto casamino acids, 1.47% sodium citrate, 0.429% citric acid monohydrate) and the yeasts were incubated overnight at 30° C. until the culture reached OD600=10.0 (10^8 cells per ml). A number of cells equal to ten times the library size was added to 1 ml of PBS containing 1% bovine serum albumin (PBSA); the suspension was centrifuged, and the supernatant was removed. For binding analysis of M-CSFM and the M-CSFRGD libraries to c-FMS, yeast cells were incubated with mouse anti c-myc antibody, 9E10 (Abcam, Cambridge, MA, USA) in a 1:50 ratio and different concentrations of soluble Fc conjugated human c-FMS (R&D systems, USA) for 1 h at room temperature. After an additional washing step, cells were labeled with secondary PE anti mouse (Sigma-Aldrich, St. Louis, MO, USA) and goat anti human Fc FITC antibodies (Sigma-Aldrich) for 30 min at 4° C. in the dark. For binding analysis of M-CSFRGD libraries to integrin, the experiment was performed with integrin binding buffer (IBB; 20 mM Tris, pH7.5, 2 mM CaCl2, 100 mM NaCl, 1 mM MgCl2, and 1 mM MnCl2)+1% BSA. The yeast cells were incubated with chicken anti c-myc and different concentrations of soluble human αvβ3 integrin (R&D Systems, Minneapolis, MN, USA) for 1 h. […]

[3] = system: c-FMS and αvβ3 integrin; test: YSD binding of M-CSFRGD variants to c-FMS and αvβ3 integrin, alone and simultaneously; design: species or system human
Procedure: For expressing the M-CSFM gene and the two M-CSFRGD libraries on the yeast surface, the SDCAA medium was replaced by SGCAA medium (2% galactose, 0.67% yeast nitrogen base, 0.5% bacto casamino acids, 1.47% sodium citrate, 0.429% citric acid monohydrate) and the yeasts were incubated overnight at 30° C. until the culture reached OD600=10.0 (10^8 cells per ml). A number of cells equal to ten times the library size was added to 1 ml of PBS containing 1% bovine serum albumin (PBSA); the suspension was centrifuged, and the supernatant was removed. For binding analysis of M-CSFM and the M-CSFRGD libraries to c-FMS, yeast cells were incubated with mouse anti c-myc antibody, 9E10 (Abcam, Cambridge, MA, USA) in a 1:50 ratio and different concentrations of soluble Fc conjugated human c-FMS (R&D systems, USA) for 1 h at room temperature. […]
To identify the high αvβ3 integrin and c-FMS binders, 25 different clones from sort 4 and 25 different clones from sort 5 were tested for binding to 20 nM of αvβ3 integrin, as described in the flow cytometry sorting section. […] To determine the binding specificity to other RGD binding integrins, namely α4β7, […], α5β1 and αvβ5 (BioLegend, USA), the three chosen M-CSFRGD variants (4.22, 4.24 and 5.6) were analyzed for binding to 250 nM of each integrin. […]

| Molecule | binding to c-kit receptor [1] | binding to αvβ3 integrin [2] | relative affinity for c-FMS and αvβ3 integrin [3] | simultaneous binding of c-FMS and αvβ3 integrin ([3]; data not shown) |
| --- | --- | --- | --- | --- |
| B1 | did not bind | did not bind | – | – |
| B2 | – | – | higher affinity for c-FMS than for αvβ3 integrin | could simultaneously bind c-FMS and αvβ3 integrin |
